Test results from patent publication US20230357429A1 (JANUX THERAPEUTICS, published 2023).
Where a chain is given by its changes, count along the chain named. Names and notes keep the numbering of the source. Where two headings read alike, the source gives them in different places. Values belong to the binder of their own block, whether it stands above or below them. Where no end group is shown, it is not given here.

How the values were obtained:
[1] = target: T1, Human TROP2 Full length (human, UniProt P09758 31-323); test: cell-based or functional assay
T1 sequence: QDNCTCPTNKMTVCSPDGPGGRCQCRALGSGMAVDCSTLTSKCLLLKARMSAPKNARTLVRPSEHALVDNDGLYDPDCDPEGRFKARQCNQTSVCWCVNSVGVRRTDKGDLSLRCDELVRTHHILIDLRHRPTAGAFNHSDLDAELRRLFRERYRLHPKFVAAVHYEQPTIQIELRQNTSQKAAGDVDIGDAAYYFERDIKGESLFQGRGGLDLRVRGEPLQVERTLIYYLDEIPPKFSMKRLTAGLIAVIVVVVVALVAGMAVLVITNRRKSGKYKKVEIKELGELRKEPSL

[2] = target: T2, Cyno TROP2 Full length (cynomolgus monkey, UniProt P09758 31-323 (human entry)); test: cell-based or functional assay
T2 chain: T1 sequence with M32V, S63N, I200V, M262V, T268S

[3] = target: T3, Human TROP2 ECD (31-274 AA), biotinylated (human, UniProt P09758 31-274, biotinylated (site not stated)); test: ELISA on immobilized TROP2
T3 construct: also called tumor-associated calcium signal transducer 2; Human TROP2-biotin
T3 sequence: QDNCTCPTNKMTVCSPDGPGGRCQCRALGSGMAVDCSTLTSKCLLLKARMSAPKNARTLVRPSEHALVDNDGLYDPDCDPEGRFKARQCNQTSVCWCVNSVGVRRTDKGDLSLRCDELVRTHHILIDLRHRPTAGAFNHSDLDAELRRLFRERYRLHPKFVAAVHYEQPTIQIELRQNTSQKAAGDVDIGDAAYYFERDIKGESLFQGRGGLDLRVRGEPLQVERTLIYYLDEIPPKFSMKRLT

[4] = target: T3, Human TROP2 ECD (31-274 AA), …; test: ELISA on immobilized TROP2; remark: listed apart in the source
[5] = target: T1, Human TROP2 Full length; test: cell-based or functional assay; remark: listed apart in the source
[6] = target: T2, Cyno TROP2 Full length; test: cell-based or functional assay
[7] = target: T4, Peptide-71 (cysteine pairing not given here; also: biotinylated, site not given here); test: ELISA, TCE on captured biotin-peptide
T4 construct: mask peptide for the CD3 scFv
T4 peptide: VDCGPDGDESILCY

[8] = target: T5, Peptide-69 (cysteine pairing not given here; also: biotinylated, site not given here); test: ELISA, TCE on captured biotin-peptide
T5 construct: mask peptide for the CD3 scFv
T5 peptide: SECLVDLQSDPCYW

[9] = target: T6, Peptide-70 (cysteine pairing not given here; also: biotinylated, site not given here); test: ELISA, TCE on captured biotin-peptide
T6 construct: mask peptide for the CD3 scFv
T6 peptide: YLCGPDGDETLACY

[10] = target: T7, Peptide-68 (cysteine pairing not given here; also: biotinylated, site not given here); test: ELISA, TCE on captured biotin-peptide
T7 construct: mask peptide for the CD3 scFv
T7 peptide: DWCWYSPDNDGLCD

[11] = target: T3, Human TROP2 ECD (31-274 AA), …; test: BLI (Octet), biotinylated human TROP2 ECD on SAX sensor, Fab 6.25-50 nM
[12] = target: T3, Human TROP2 ECD (31-274 AA), …; test: ELISA, biotinylated TROP2 ECD on neutravidin plate, Fab titrated
[13] = target: T3, Human TROP2 ECD (31-274 AA), …; test: ELISA: biotinylated TROP2 captured on neutravidin plate, Fab titrated, HRP secondary antibody
[14] = target: T3, Human TROP2 ECD (31-274 AA), …; test: ELISA, ratio of EC50 to that of TBD-1 wt
[15] = target: T3, Human TROP2 ECD (31-274 AA), …; test: BLI (Octet), dissociation half-life from biotinylated human TROP2 ECD

- CyTROP2 HEK293 EC50 (pM) [6]: 0.11 pM
B6: TCE-7 (bispecific antibody)
light: DIQLTQSPSSLSASVGDRVSITCKASQDVSIAVAWYQQKPGKAPKLLIYSASYRYTGVPDRFSGSGSGTDFTLTISSLQPEDFAVYYCQQHYITPLTFGAGTKVEIKRTVAAPSVFIFPPSDEQLKSGTASVVCLLNNFYPREAKVQWKVDNALQSGNSQESVTEQDSKDSTYSLSSTLTLSKADYEKHKVYACEVTHQGLSSPVTKSFNRGEC
heavy: not shown
- HCT116 Cytotoxicity EC50 (pM) [5]: 113 pM

- CyTROP2 HEK293 EC50 (pM) [6]: 0.8 pM
B7: TCE-48 (bispecific antibody)
light: B6 light
heavy: not shown
- H292 Cytotoxicity EC50 (pM) [5]: 7.2 pM

- CyTROP2 HEK293 EC50 (pM) [6]: 3.6 pM
B8: TCE-38 (bispecific antibody)
light: B6 light
heavy: not shown
- HCT116 Cytotoxicity EC50 (pM) [5]: > 3000 pM

- EC50 [7]: 0.32 nM
- EC50 [8]: 0.31 nM
- EC50 [9]: 0.29 nM
- EC50 [10]: 0.41 nM
B9: TCE-34 (anti-CD3 scFv P41S, A49G, N87S, L150F, T151S, G163R, P175A, K181T, T200V, A202D, L208I, G211N, L217I, S218T, V220A, P222A, E223D, A226S, E227D; … (bispecific antibody)
light: B6 light
heavy: EVQLVESGGGLVQPGGSLKLSCAASGFTFNKYAMNWVRQASGKGLEWVGRIRSKYNNYATYYADSVKDRFTISRDDSKNTAYLQMNSLKTEDTAVYYCVRHGNFGNSYISYWAYWGQGTLVTVSSGGGGSGGGGSGGGGSQTVVTQEPSFSVSPGGTVTLTCRSSTGAVTSGNYANWVQQTPGQAPRGLIGGTKFLAPGVPDRFSGSILGNKAALTITGAQADDESDYYCVLWYSNRWVFGGGTKLTVLGGGGSQVQLQQSGSELKKPGASVKVSCKASGYTFTNYGMNWVKQAPGQGLKWMGWINTYTGEPTYTDDFKGRFAFSLDTSVSTAYLQISSLKADDTAVYFCARGGFGSSYWYFDVWGQGSLVTVSSASTKGPSVFPLAPSSKSTSGGTAALGCLVKDYFPEPVTVSWNSGALTSGVHTFPAVLQSSGLYSLSSVVTVPSSSLGTQTYICNVNHKPSNTKVDKKVEPKSC
notes: scFv on the Fab heavy chain

- EC50 [3]: 2.5 nM
- EC50 [4]: 7.29 nM
B10: TCE-4 (bispecific antibody)
light: not shown
heavy: QVQLQQSGSELKKPGASVKVSCKASGYTFTNYGMNWVKQAPGQGLKWMGWINTYTGEPTYTDDFKGRFAFSLDTSVSTAYLQISSLKADDTAVYFCARGGFGSSYWYADVWGQGSLVTVSSASTKGPSVFPLAPSSKSTSGGTAALGCLVKDYFPEPVTVSWNSGALTSGVHTFPAVLQSSGLYSLSSVVTVPSSSLGTQTYICNVNHKPSNTKVDKKVEPKSC

- Kd [11]: 6.34 nM
- EC50 [12]: 52.3 nM
- EC50 [13]: 52.2 nM
- Fold shift in EC50 relative to wt [14]: 262 fold
- t1/2 [15]: 10 min
B12: TBD-20 (anti-TROP2 Fab, HC Y107A) (Fab, V domains shown)
VH: QVQLQQSGSELKKPGASVKVSCKASGYTFTNYGMNWVKQAPGQGLKWMGWINTYTGEPTYTDDFKGRFAFSLDTSVSTAYLQISSLKADDTAVYFCARGGFGSSYWAFDVWGQGSLVTVSS
VL: DIQLTQSPSSLSASVGDRVSITCKASQDVSIAVAWYQQKPGKAPKLLIYSASYRYTGVPDRFSGSGSGTDFTLTISSLQPEDFAVYYCQQHYITPLTFGAGTKVEIKR

- Kd [11]: 4.76 nM
- EC50 [12]: 4.1 nM
- EC50 [13]: 4.11 nM
- Fold shift in EC50 relative to wt [14]: 20.5 fold
- t1/2 [15]: 8 min
B13: TBD-21 (anti-TROP2 Fab, HC F108A) (Fab, V domains shown)
VH: B12 VH with A107Y, F108A
VL: B12 VL
notes: also called TBD-21 (HC F108A mutant)

- Kd [11]: 0.401 nM
- EC50 [12]: 0.2 nM
- EC50 [13]: 0.236 nM
- Fold shift in EC50 relative to wt [14]: 1 fold
- t1/2 [15]: 34 min
B14: TBD-23 (anti-TROP2 Fab, HC V110A) (Fab, V domains shown)
VH: B12 VH with A107Y, V110A
VL: B12 VL

- Kd [11]: 2.35 nM
- EC50 [12]: 1.1 nM
- EC50 [13]: 1.1 nM
- Fold shift in EC50 relative to wt [14]: 5.5 fold
- t1/2 [15]: 33 min
B15: TBD-22 (anti-TROP2 Fab, HC D109A) (Fab, V domains shown)
VH: B12 VH with A107Y, D109A
VL: B12 VL
notes: also called TBD-22 (HC D109A mutant)

The next lines start with the binder.

B1: PC-31 (bispecific antibody)
light: GGVDFCGLYHWPICYQGGGGSGGLSGRSDAGSPLGLAGSGGSDIQLTQSPSSLSASVGDRVSITCKASQDVSIAVAWYQQKPGKAPKLLIYSASYRYTGVPDRFSGSGSGTDFTLTISSLQPEDFAVYYCQQHYITPLTFGAGTKVEIKRTVAAPSVFIFPPSDEQLKSGTASVVCLLNNFYPREAKVQWKVDNALQSGNSQESVTEQDSKDSTYSLSSTLTLSKADYEKHKVYACEVTHQGLSSPVTKSFNRGEC
heavy: not shown
- H292 Cytotoxicity EC50 (pM) [1]: > 100000 pM
- CyTROP2 HEK293 EC50 (pM) [2]: > 100000 pM

B2: PC-32 (bispecific antibody)
light: B1 light
heavy: not shown
- H292 Cytotoxicity EC50 (pM) [1]: 28100 pM
- CyTROP2 HEK293 EC50 (pM) [2]: 35900 pM

B3: PC-13 (bispecific antibody)
light: not shown
heavy: GGVDFCGLYHWPICYQGGGGSGGLSGRSDAGSPLGLAGSGGSQVQLQQSGSELKKPGASVKVSCKASGYTFTNYGMNWVKQAPGQGLKWMGWINTYTGEPTYTDDFKGRFAFSLDTSVSTAYLQISSLKADDTAVYFCAAGGFGSSYWYFDVWGQGSLVTVSSASTKGPSVFPLAPSSKSTSGGTAALGCLVKDYFPEPVTVSWNSGALTSGVHTFPAVLQSSGLYSLSSVVTVPSSSLGTQTYICNVNHKPSNTKVDKKVEPKSC
notes: anti-TROP2 R98A
- EC50 [3]: > 1000 nM
- EC50 [4]: 419 nM

B4: PC-19 (bispecific antibody)
light: not shown
heavy: B3 heavy with G7A, A140R, F150A
notes: anti-TROP2 F108A
- EC50 [3]: > 1000 nM

B5: PC-23 (bispecific antibody)
light: not shown
heavy: B3 heavy with G17V
notes: anti-TROP2 R98A
- EC50 [3]: > 1000 nM

B11: TBD-17 (anti-TROP2 Fab, HC S104A) (Fab, V domains shown)
VH: B12 VH with S104A, A107Y
VL: B12 VL
notes: also called TBD-17 (HC S104A mutant)
- Kd [11]: 0.9 nM
- EC50 [12]: 0.4 nM
- EC50 [13]: 0.432 nM
- Fold shift in EC50 relative to wt [14]: 2 fold
- t1/2 [15]: 24 min

B16: PC-47 (bispecific antibody)
light: GGVDFCGLYHWPICYQGGGGSGGGGGSGGGGSGGASSGAGGSDIQLTQSPSSLSASVGDRVSITCKASQDVSIAVAWYQQKPGKAPKLLIYSASYRYTGVPDRFSGSGSGTDFTLTISSLQPEDFAVYYCQQHYITPLTFGAGTKVEIKRTVAAPSVFIFPPSDEQLKSGTASVVCLLNNFYPREAKVQWKVDNALQSGNSQESVTEQDSKDSTYSLSSTLTLSKADYEKHKVYACEVTHQGLSSPVTKSFNRGEC
heavy: not shown
- H292 Cytotoxicity EC50 (pM) [1]: > 100000 pM
- CyTROP2 HEK293 EC50 (pM) [2]: 17300 pM
